Experimental data: article PMC9976877, “The Ku complex promotes DNA end-bridging and this function is antagonized by Tel1/ATM kinase”

Tests used:
[1] = biological target: T1, Ku70-Strep (wild type);Ku80-6xHis (Saccharomyces cerevisiae;Saccharomyces …, UniProt P32807;Q04437 1-602;1-629, |); experiment: EMSA; 13 nM DNA; 0-104 nM Ku; shift detectable at 4-fold ratio of Ku to DNA; 2 mM MgCl2; EMSA: 25 mM Tris/HCl pH 7.5, 100 mM NaCl, 2 mM MgCl2, 7% glycerol, 1 mM DTT, 30 min on ice; 6% native gel at 4 °C; settings: protein: recombinant;recombinant; tags: Strep;6xHis; copies: 1;1; label: 32P; blunt
T1 sequence 1: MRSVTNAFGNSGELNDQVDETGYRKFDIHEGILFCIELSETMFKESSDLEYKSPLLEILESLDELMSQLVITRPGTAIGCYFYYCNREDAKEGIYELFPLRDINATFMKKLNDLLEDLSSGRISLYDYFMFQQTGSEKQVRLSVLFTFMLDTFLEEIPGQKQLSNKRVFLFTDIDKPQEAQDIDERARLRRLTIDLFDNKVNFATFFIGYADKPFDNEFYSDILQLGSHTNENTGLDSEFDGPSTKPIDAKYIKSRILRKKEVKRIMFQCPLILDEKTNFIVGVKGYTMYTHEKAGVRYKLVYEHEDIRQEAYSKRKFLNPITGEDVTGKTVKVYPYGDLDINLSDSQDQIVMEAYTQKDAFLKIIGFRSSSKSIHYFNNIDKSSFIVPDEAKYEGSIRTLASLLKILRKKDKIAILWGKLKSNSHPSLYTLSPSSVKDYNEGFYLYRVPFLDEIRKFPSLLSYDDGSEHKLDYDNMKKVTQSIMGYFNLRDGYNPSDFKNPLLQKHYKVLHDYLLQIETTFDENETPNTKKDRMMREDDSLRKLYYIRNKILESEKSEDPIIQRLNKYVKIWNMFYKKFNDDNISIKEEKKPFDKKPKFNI
T1 sequence 2: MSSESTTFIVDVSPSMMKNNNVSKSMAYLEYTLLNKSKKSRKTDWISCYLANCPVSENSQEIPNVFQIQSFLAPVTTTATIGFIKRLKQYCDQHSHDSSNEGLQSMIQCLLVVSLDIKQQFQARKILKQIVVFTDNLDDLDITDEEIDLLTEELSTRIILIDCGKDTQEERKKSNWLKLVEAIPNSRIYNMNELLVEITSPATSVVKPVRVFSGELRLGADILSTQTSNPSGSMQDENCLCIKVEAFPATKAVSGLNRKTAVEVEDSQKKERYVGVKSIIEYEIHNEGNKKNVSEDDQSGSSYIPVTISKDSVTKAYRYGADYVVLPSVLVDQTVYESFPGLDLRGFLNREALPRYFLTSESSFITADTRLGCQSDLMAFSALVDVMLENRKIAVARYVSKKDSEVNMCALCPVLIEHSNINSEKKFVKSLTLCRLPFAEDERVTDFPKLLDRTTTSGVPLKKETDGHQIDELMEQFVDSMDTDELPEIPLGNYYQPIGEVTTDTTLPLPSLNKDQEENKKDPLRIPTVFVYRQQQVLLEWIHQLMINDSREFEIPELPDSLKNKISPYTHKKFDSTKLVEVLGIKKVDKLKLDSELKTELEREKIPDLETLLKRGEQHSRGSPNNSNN

[2] = biological target: T2, Ku70 C85Y-Strep;Ku80-6xHis (Saccharomyces cerevisiae;Saccharomyces …, UniProt P32807;Q04437 1-602;1-629, C85Y|); experiment: EMSA; 13 nM DNA; 0-104 nM Ku; shift detectable at 2-fold ratio of Ku to DNA (stronger than wild type); 2 mM MgCl2; EMSA: 25 mM Tris/HCl pH 7.5, 100 mM NaCl, 2 mM MgCl2, 7% glycerol, 1 mM DTT, 30 min on ice; 6% native gel at 4 °C; settings: protein: recombinant;recombinant; tags: Strep;6xHis; copies: 1;1; label: 32P; blunt
T2 sequence 1: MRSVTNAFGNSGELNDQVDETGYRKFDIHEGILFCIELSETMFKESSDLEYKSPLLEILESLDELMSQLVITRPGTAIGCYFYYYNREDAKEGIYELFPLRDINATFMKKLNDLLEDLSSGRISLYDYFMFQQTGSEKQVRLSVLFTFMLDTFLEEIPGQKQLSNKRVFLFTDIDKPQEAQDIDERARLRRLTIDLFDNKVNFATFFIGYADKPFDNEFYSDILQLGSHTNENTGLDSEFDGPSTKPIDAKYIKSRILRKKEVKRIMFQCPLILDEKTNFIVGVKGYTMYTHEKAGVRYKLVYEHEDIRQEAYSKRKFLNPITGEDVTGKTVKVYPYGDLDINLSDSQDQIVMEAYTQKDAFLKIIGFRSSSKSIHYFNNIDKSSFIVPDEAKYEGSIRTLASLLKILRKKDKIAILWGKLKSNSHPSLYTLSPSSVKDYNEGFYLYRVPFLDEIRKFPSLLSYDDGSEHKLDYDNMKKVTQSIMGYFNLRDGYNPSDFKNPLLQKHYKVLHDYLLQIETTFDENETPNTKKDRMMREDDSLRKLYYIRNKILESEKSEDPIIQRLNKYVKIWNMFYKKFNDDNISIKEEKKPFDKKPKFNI
T2 sequence 2: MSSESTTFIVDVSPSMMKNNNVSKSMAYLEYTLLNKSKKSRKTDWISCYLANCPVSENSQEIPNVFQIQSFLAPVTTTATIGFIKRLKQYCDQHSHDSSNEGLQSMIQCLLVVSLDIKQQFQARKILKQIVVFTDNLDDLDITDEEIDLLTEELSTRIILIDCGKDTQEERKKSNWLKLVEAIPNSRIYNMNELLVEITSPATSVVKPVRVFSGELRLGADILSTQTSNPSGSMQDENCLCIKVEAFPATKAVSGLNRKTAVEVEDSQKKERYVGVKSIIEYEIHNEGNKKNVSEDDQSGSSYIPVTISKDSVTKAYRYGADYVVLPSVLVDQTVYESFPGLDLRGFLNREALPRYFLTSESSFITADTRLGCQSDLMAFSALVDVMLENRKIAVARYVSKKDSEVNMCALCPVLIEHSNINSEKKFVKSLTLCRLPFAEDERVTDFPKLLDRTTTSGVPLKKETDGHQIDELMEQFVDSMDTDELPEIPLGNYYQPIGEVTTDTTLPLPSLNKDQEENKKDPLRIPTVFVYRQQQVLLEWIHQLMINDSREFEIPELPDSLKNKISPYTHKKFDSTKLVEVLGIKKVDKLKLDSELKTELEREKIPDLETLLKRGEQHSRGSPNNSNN

B1: 21 bp blunt-ended dsDNA (dsDNA)
DNA 1: CCGCACACCCACACACCAGTG
DNA 2: CACTGGTGTGTGGGTGTGCGG
**Q.** Does B1 bind [1]?
**A.** Result: binds

**Q.** Does B1 bind [2]?
**A.** Result: binds
